Assay [1] addresses GLP-1R expressed on CRE-Luc/GLP-1R HEK293 cells.
The target of a further assay is T1, hFcRn&b2M protein (human, UniProt P61769 21-119, limits assumed).
T1 construct: also called hFcRn&β2M; human FcRn protein
The assay can be described thus: binding affinity to hFcRn & b2M at pH 6.0, method not named; pH 6.0; soluble hFcRn & b2M as ligand.

The values that follow come from US20190023785A1 (SHANGHAI JIAOTONG UNIVERSITY, published 2019).

T1 sequence (chain, as listed by the source limits assumed, chain 1 of 2): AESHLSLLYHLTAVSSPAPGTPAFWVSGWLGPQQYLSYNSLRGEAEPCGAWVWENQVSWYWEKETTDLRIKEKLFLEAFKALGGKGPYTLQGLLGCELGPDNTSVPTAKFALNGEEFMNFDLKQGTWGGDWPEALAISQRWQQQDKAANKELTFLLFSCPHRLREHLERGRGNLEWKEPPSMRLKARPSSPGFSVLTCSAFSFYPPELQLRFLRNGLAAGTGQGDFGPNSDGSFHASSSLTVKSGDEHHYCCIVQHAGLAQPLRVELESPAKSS
T1 sequence (P61769 21-119 limits assumed, chain 2 of 2): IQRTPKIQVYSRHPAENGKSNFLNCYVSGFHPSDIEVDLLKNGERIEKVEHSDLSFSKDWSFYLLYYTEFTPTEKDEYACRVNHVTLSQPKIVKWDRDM

Take GLP-1 (peptide): in assay [1], the EC50, relative luciferase activity in CRE-Luc/GLP-1R HEK293 reporter cells was 3.89 nM.

B1: FnAb12 single chain antibody (scFv)
scFv: DIQLTQSPSSLSASVGDRVTLTCQATQDIDNNLNWYQQKPGKAPKLLIYDASNLETGVPSRFSGSGSGTDFTFTISDLQPEDVATYYCQQYYNLPLTFGGGTKVDIKRSRGGGGSGGGGSGGGGSLEMAEVQLVQSGAEVKKPGASVKVSCKASGYTFTSYDINWVRQATGQGLEWMGWMNPNSGNTGYAQKFQGRVTMTRNTSISTAYMELSSLRSEDTAVYYCARGVDLGDGWGQGTLVTVSS
notes: Single chain antibody from a phage library
For the molecule B1, the Kd with hFcRn&b2M protein stood at 15 nM.
